# Measurements as given in the DeepSol protein solubility set.
# Assay: soluble on expression in E. coli; label from the status in PepcDB or PDB records
row,Sequence,soluble on expression in E. coli
1,SGSAARQPLFSFGVIADVQYADISDGRSFLGVPRYYRNSILVLQRAVETWNQHGNLKFVINMGDIVDGFCPKDQSLAATKKLVHEFEKFNGPVYHMIGNHCLYNLPREELLPLLKIPGRDGNAYYDFSPTPEYRVVVLDGYDISAVGWPQEHPNTIAALKILEEKNPNTDKNSPAGLEDVARRFVKYNGGVGEKQLQWLDSVLQDASNSNQRVIVCGHVPMSPGVASKAALLWNFDEVMNIIHKYDSVKVCLSGHDHKGGYFVDSHGVHHRSLEAALECPPGTYSFGYIDVYDNKLSLVGTDRMQSTDFEN,soluble
2,SGTPNDQAVLQAIFNPDTPFGDVVGLDLEEAEEGDEDGVFPQAQLEHSKALELQGVRAAEAGDLHTALEKFGQAISLLPDRASAYNNRAQARRLQGDVAGALEDLERAVTLSGGRGRAARQSFVQSGLLARFQGRDDDARRDFEKAARLGSPFARRQLVLLNPYAALCNRMLADMMGQLRAPSNGR,soluble
3,SHSKLRIKKEIEPIVSALTFLSQGQSAALNEKGNFSEIKTALNETSHILEESNMMKEQWIRGVSHDLRNPLMLISGYTSQLEQQYGHGKQTEQIENQIQNMKEMISNLNLSYLLDNQKRHSKFSSLDLAVVLRSVIADILNNYETVILHFDLPTEAVLVKGDATLLERAFRNLLLNSIKHSGSNQIDLTYQLFDNKVIIIIADKGTITAQKIVELNQKSTNYESHGMGTVITKQIIKLHQGETVFSDNHPGLKVTIVLPVTDEF,not soluble
4,SIVADSECRAELKDYLRFAPGGVGDSGPGEEQRESRARRGPRGPSAFIPVEEVLREGAESLEQHLGLEALMSSGRVDNLAVVMGLHPDYFTSFWRLHYLLLHTDGPLASSWRHYIAIMAAARHQCSYLVGSHMAEFLQTGGDPEWLLGLHRAPEKLRKLSEINKLLAHRPWLITKEHIQALLKTGEHTWSLAELIQALVLLTHCHSLSSFVFGCGILPEGDADGSPAPQAPTPPSEQSSPPSRDPLNNSGGFESARDVEALMERMQQLQESLLRDEGTSQEEMESRFELEKSESLLVTPSADILEPSPHPDMLCFVEDPTFGYEDFTRRGAQAPPTFRAQDYTWEDHGYSLIQRLYPEGGQLLDEKFQAAYSLTYNTIAMHSGVDTSVLRRAIWNYIHCVFGIRYDDYDYGEVNQLLERNLKVYIKTVACYPEKTTRRMYNLFWRHFRHSEKVHVNLLLLEARMQAALLYALRAITRYMT,not soluble
5,SKDFMISAKGTFTYAKNQYMEIDEPDYEYAYMSQVGRPLNQYKGYIALGLFKDQEEIDNSPKQILTGVVQPGDIKYADLNNDGKIDGNDQTYIGNPELPQISYGLGVSIQYKKWDASIFFQGVGKRSIMLSDIHPFGGESYGVMQFVADNHWTEANPNPEAMYPRLTNGKNNNNNPNSTYWLRDGSYIRLKNVELGYSYKFLRAYISGQNLLTFSKFKLWDPELYTSNGLKYPTQIMGSIGLQFTF,not soluble
6,SKGIKSEEVKINNIAIEINKATKRDPGNCNLDNHIKPSPDSSLDNQMKLSCESAPDQNFSICSASEVETNPLENTAAASTLLSQAKIDEDRTFPGSAPNQQHSVLSDEASINRKNRDVPPNHSQLKHDSHLEITIPKSLKLKDSEKVDEKQLVIDAGHKRFGAVSCNICGMLYTASNPEDETQHLLFHNQFISAVKYVVLLINHHECGSEEEFITSLFLSMSNFRYTQRSLLPY,soluble
7,SKIADPAFLRRLGYKIEFKPLSLTDYQALWMSLAKDYQMTLVPEFFETLSQLHRDNDVAYFPCLPKDLLGISRDILVFEGKEKIVSSDILTRAWGLYFTVDE,soluble
8,SKMTYADGTPIANIKSDLIRTRINGDQMSPLLKKAIISTEDEYFEEHHGVVPKALVRALISDATGIGGSSGGSTLTQQLVKQQILTDETTFKRKANEILLALRIEKYFSKDEIVTTYLNVSPFGRNNKGENIAGVEEAAKGLFGKSAKDLNLPQAAFIAGLPQSPIVYTPYTNT,not soluble
9,SLAFEPPRRLVRAFGETAPEGDDWLATLPEVAERAVARRGLTVERVQVPGGRSSLVVLVRTAEGAPAVLKLAPRRARPESERAALVHWGGRGAVQVREEGDEEGVLLLERLHPDVSVRSLPEAKALLEAAGTLRRLWVEPPGSHPFETVAERTGRQAEAMRAGAAADAQVAPLVDAALAARAELLGGPSEQRLLHGTFRQSKVLAGDRMPWLAVGPDPVVGESAFDLARLVRDRVEDLIAQPSGASTTRRRIKRLAESLEVDQERLRGWTLFRAVESGVRARRVGRERDAELLLEFAGWL,soluble
10,SLATRRPMSIAEPDTAVSTASFMTAWEFPQGDDSAETPTTPKALQFQEPEYIHIPWDHNTDIAPDLMDLCHVVDDRTKAGKRVLIHCQQGASRSASLIIAYGLFQRPELTVNDAYYAAQAKSQWISPNMKLMYSLQDFQKEVSTKRTAQPSNREG,not soluble
11,SLDITLVFPHQLFADHPAIQAGRTVALIEDPLLFGTDPQWPLRMHHQRRLLHRASMTVYAEQLRGRGFNVIHQRHDAAPDTQGHLQLLHSAGYRHVHLVDLVDHWLERRLNAFAESVALRVSVLPTPMLLTPADVLEKHFGTGKKPLMAKFYEMQRTRLGVLMDAEGRPVGGRWSFDADNRKKLPKDISVPPIPVATPSTVVNTSRQQLAQENLPGVGKLDGFYYP,soluble
12,SLFIDAHNHLDFFEEQEKLNKALDIIKNDNIITLGCSMDTKSYKFTKSLALKNKNIIPCFGIHPSRAHENFKNLECFDEYIRESKIIGEIGLDYVWVKEKEKYPHMKRVFTYFLEEAKKYNKITNIHTKGAESEIYNYIKKYELKTPIIHWYSGDKDTLKKLLDYGCYFTISVDIGYSKLSKEIVQLLPIDKILTETDGPTSLEWVNGDYGYPNVIKNVVKEISKIKNIQEEEVKGVIENNFKTLIRKEGITL,not soluble
13,SLGRTRRKNKPITIKSYVVSSDTWQLGCIEYGSHSMSGQRAYNEDRVCVVPSVDVCTREGCCKAHTKAMFYAVYDGHNGEEAVNYVQEHLHKNIFRSRSFHGDVSKAIRAGFIATDNALRSMVMEKIRGEGFEDQDISPFSSGTTACTAVVRDMQLYIGNLGDSRCVLSRAGRSHLITVDHSCRTNADEQQRVREDGGHYDTDGYLNGAIGVSRAFGAFDKNCGQKLSGLTCEPQIHKETLRREDEFMIIACDGVFDVISCQEAVNCPPERLQHKDKRPADWTPTTPGLGEEKAATAEARPSSSSRSPLAATQSGASAGDRTGVSG,not soluble
14,SLHAQQKAEQLAEREEMVAELSAAKQQITQSEHWRAECELLNNEVRSLQSINTSLEADLREVTTRMEAAQQHADDKIRQMINSEQRLSEQFENLANRIFEHSNRRVDEQNRQSLNSLLSPLREQLDGFRRQVQDSFGKEAQERHTLTHEIRNLQQLNAQMAQEAINLTRALKGDNKTQGNWGEVVLTRVLEASGLREGYEYETQVSIENDARSRMQPDVIVRLPQGKDVVIDAKMTLVAYERYFNAEDDYTRESALQEHIASVRNHIRLLGRKDYQQLPGLRTLDYVLMFIPVEPAFLLALDRQPELITEALKNNIMLVSPTTLLVALRTIANLWRYEHQSRNAQQIADRASKLYDKMRLFVDDMSAIGQSLDKAQDNYRQAMKKLSSGRGNVLAQAEAFRGLGVEIKREINPDLAEQAVSQDEEYRLRSVPEQPNDEAYQRDDEYNQQSR,not soluble
15,SLHLGEQIWIYQGKKKEWLLGQIPEVNSALVSLNSDNGAIEAIVGGFSFEQSRFNRATQSLVQVGSSIKPFIYAAAMNKGLSLSTTLSDTPITINKQGQKPWEPKNADKRYEGPLRLRVALGKSKNMVAIRALQMSGVDYVADYLSRFGFNPDQFMATEALALGAASFTPLEMARAYAVFDNGGYLIEPYIIDRILDNQGNELFKANPALACLECNHIDLAYQEPTYFDGVKIHDEDQLRAEIDEINANPAASNTQTEDDQEPEIATTIKPQAPSLMTESIKNDASMRYAPRVISGELAFLMRSALNSAIYGEPGQNWHGTSRAIAKAFKRKDIGGKTGTTNNSKVTWYAGFGANIVTTVYVGFDDNRRDLGKGEAGAKTAMPAWIKYMKVALADKK,not soluble
16,SLIENVDAQADSSWPHRGQIEVRNLTVKYTEAGHAVLKNLSFSAEGRQRVGILGRTGSGKSSLFNALLKLVYTDGEISIDGVNWNKMPLEKWRKAFGVVPQKVFIFTGPLRMNLDPYGCHSDEELWRVAEEVGLKTVIEQFPDKLDFQLEYGGYVLSNGHKQLICLARSILSGARILLLDEPSAHLDPVTIKVLKKTLRQSFSTCTILLSEAKVEPLLECDSFLMMDKGQVKTYDSIQKLLNETSDLKQAISPAE,soluble
17,SLIFILGIFYYLTQPLKSNSVVFIPQGSISQIITYLKQNKYQMSNIDKYILFFLGHPQSGWINIGTKDLNRAEFLHKLTIAKAALQTITLIPGETSVIFLEQAAKQLGLDKDILLKEFQAQAPYDEGVFLPETYKIPKGITENLLIQMLLNHAEISNKKTSEKIFGDYNPKKWHQYIIIASVIQKEAANDNEMPIVASVIYNRLKKGMKLQMDGTLNYGIYSHVKVTPQRIRQDNSFYNTYKFTGLPKEAVCNVSLAAIRAAIFPLKTDYLYFVRDKNTGVHIFSTNIDDHNKAINLQKGK,soluble
18,SLIHIAIVEDENKDRELLKEYLDRFQAEKGEPLFVHVYPDGEEFLESFSSGKFDILLLDIHMQYMNGMATAQEIRKSDENVLIIFITNLVQYAVQGYSVRAFDFIVKPVEYSVFAQKLYRATQRLNRTEG,soluble
19,SLIRSMTGFGSASKTQDDLSVSVELKSVNYRFKEVNARLPRPLLYFEDKLKQTILQHIQRGRIELFVSVDSDMLVEKRLEIDWPLLDEFVAAARDMKKRYQLSAEPDVMDFFKLDHVVQVHEEQTQNDKLEALIIDAAEEAVKGLCEMREKEGLLLAKDCLMHIDQLEELVRETELLAADVVSRYRERLYARIKEWTEDVLDESRLVTECAIFADRSDITEEITRLKSHFAQFRDILASGGAVGRKLDFLVQELNREANTIGSKANDHQITKLVVEMKSSIEKIKEQVQNIE,soluble
20,SLKKILILDDETSVLNALQRQLIRNNWQVISFKHPATALDYAKHVFFPIVITDYRMPQMSGVEFLLEFQKLQPYAYKIMLSGQAGEYGMTEAINQAKIDYFIHKPWDNCQLLNQIDKGLNHYRQTIKHLLKTNSKRMSREDYLIWYEKLVEQACPSITKVKKNPLGWIEAEEG,not soluble
21,SLKWDNSYSVHNAKIDEQHKKLFKLAAKVEVVSDRSVSKNEVKELLAEFFNYMKDHFNDEEKYMQLIGYPNLEEHRKIHKEIIQTMINLIKDIKSTNDLKEKLYIVAKKWLLEHILYEDMKVEKWRSSSLSTDDGGDVS,soluble
22,SLLTALTADNQELFSLIDCSIDELTQIRSEQAFVCPMCHQSVILKAGPIKIPHFAHRKKNSCWYEAEAETEEHLRLKQLFAEKCLREKLSFQVEAYLPTLKQRPDLLIGKIAIEIQCSPLPIKRLVERTETYQTHGYQVVWILGERLVPKDKLTQLTKQFLYFSESLGFYLWSANKKQERIELLCHIEESQCQQFYRRKQSWDFYEKQLLEIFRLPTANLNLLPDRRHTGQLMHDYYQKLTQQLGYRNAQLLRTQSFLYTKGCHLLQLPPWFYYPGLKLIPSSEEDIHLKMLVWEALKTEEERLVTKQELWRILEAIFLEEGNFVWQPLPNIGLKKLFKIVGNNLLRWLQECYVLIKVNNKYLITSIFLREDPEKLIHWLKKVKKQHFFSHTC,soluble
23,SLNAAAADRNKDPILSVLKSRVASNRRLFALEISSGTGQHVVHFAKAFPNITWQPSEVETQSLSSIEAYRQYHRLQNVQPPIYLDVSQSWQTWGGFPAESCDLIININMMHISPLACTTGLFHGVGQILKPQGLLLTYGPYAFNGSIVPQSNFDFDQSLRYRNPEWGLRDASFLTTLGQENGLRLEEIVDMPANNKCLLFRKDSVV,soluble
